Reference: US20190276511A1 (BIONTECH RNA PHARMACEUTICALS, published 2019)
Like-named read-outs stand apart in the source and are kept apart here.

T1: OX40-Fc (human, UniProt P43489 29-214)
T1 construct: extracellular domain; hinge included for covalent assembly; also called OX40 receptor-Fc fusion protein; not shown: human Fc gamma 1 region including the hinge region
T1 sequence (looked up): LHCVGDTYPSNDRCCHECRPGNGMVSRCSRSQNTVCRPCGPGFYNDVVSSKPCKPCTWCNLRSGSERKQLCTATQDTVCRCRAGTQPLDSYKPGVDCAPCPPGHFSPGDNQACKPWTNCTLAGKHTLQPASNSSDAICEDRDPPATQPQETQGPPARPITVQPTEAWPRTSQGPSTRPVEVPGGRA

T2: CD27-Fc (human, UniProt P26842 20-191)
T2 construct: extracellular domain; hinge included for covalent assembly; also called CD27 receptor-Fc fusion protein; not shown: human Fc gamma 1 region including the hinge region
T2 sequence (looked up): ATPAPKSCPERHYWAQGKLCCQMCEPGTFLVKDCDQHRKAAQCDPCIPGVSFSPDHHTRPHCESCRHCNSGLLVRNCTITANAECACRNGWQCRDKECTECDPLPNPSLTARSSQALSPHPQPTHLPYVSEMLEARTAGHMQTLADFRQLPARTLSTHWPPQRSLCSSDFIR

T3: OX40 receptor on cells (human, UniProt P43489 29-277)
T3 sequence (looked up): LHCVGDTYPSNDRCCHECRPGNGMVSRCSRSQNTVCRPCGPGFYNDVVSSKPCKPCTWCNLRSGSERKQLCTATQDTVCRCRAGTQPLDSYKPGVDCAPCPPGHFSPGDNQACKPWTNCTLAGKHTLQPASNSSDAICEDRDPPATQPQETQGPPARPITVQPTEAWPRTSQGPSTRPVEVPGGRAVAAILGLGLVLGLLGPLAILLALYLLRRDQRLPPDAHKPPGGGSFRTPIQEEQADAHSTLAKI


Legend:
4-1BB-Fc = target: T4, 4-1BB-Fc (human, UniProt Q07011 24-186); test: ELISA, coated receptor-Fc
T4 construct: extracellular domain; hinge included for covalent assembly; also called 4-1BB receptor-Fc fusion protein; not shown: human Fc gamma 1 region including the hinge region

OX40-Fc = target: T1, OX40-Fc; test: ELISA, coated receptor-Fc
CD40 receptor on cells [1] = target: T5, CD40 receptor on cells (human, UniProt P25942 21-277); test: cell-based or functional assay
T5 sequence (P25942 21-277): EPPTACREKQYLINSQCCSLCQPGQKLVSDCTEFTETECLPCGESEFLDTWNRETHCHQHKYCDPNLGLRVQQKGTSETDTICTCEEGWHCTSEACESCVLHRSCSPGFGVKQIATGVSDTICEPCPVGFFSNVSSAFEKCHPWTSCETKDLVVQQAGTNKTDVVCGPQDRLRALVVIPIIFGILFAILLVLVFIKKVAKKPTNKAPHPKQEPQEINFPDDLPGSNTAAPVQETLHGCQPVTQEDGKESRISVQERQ

CD40-Fc [2] = target: T6, CD40-Fc (human, UniProt P25942 21-193); test: ELISA, coated receptor-Fc
T6 construct: extracellular domain; hinge included for covalent assembly; also called CD40 receptor-Fc fusion protein; not shown: human Fc gamma 1 region including the hinge region
T6 sequence (P25942 21-193 limits assumed): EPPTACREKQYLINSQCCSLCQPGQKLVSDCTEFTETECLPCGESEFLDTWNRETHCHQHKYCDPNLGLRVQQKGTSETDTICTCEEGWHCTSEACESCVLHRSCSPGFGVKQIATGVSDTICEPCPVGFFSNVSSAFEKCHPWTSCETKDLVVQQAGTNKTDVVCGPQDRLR
Description: (§1) Receptor binding of the single-chain Duokines was analyzed by ELISA using fusion proteins of the extracellular region of CD40, CD27, 4-1BB and OX40, respectively, with the human Fcγ1 region including the hinge region for covalent assembly (CD40-Fc, CD27-Fc, 4-1BB-Fc, OX40-Fc). Receptor-Fc fusion proteins (200 ng/well) were coated overnight at 4° C. and remaining binding sites were blocked with PBS, 2% skimmed milk powder (2% MPBS). […] The interactions between scDuokine and receptor were dose-dependent with EC₅₀ values in the low nanomolar ranges (FIG. 11 AB, Tab. 2).

CD27-Fc [3] = target: T2, CD27-Fc; test: ELISA, coated receptor-Fc
Description: as §1

CD40-Fc [4] = target: T6, CD40-Fc; test: ELISA, coated receptor-Fc; remark: listed apart in the source
OX40 receptor on cells [5] = target: T3, OX40 receptor on cells; test: cell-based or functional assay
CD27-Fc [6] = target: T2, CD27-Fc; test: ELISA, coated receptor-Fc; remark: listed apart in the source
Description: (§2) Receptor binding of the Duokines was analyzed by ELISA using fusion proteins of the extracellular region of CD40, CD27, 4-1BB and OX40, respectively, with the human Fcγ1 region including the hinge region for covalent assembly (CD40-Fc, CD27-Fc, 4-1BB-Fc, OX40-Fc). Receptor-Fc fusion proteins (200 ng/well) were coated overnight at 4° C. and remaining binding sites were blocked with PBS, 2% skimmed milk powder (2% MPBS).

CD40 receptor on cells [7] = target: T5, CD40 receptor on cells; test: cell-based or functional assay; remark: listed apart in the source
CD40-Fc [8] = target: T6, CD40-Fc; test: ELISA, coated receptor-Fc; remark: listed apart in the source
Description: as §2

OX40 receptor on cells [9] = target: T3, OX40 receptor on cells; test: cell-based or functional assay; remark: listed apart in the source

| Binder | binding result (4-1BB-Fc) | binding result (OX40-Fc) | Receptor activation (EC50, nM) (CD40 receptor on cells [1]) [nM] | EC50 (CD40-Fc [2]) [nM] | EC50 (CD27-Fc [3]) [nM] | binding result (CD40-Fc [4]) | Receptor activation (EC50, nM) (OX40 receptor on cells [5]) [nM] | EC50 (CD27-Fc [6]) [nM] | Receptor activation (EC50, nM) (CD40 receptor on cells [7]) [nM] | EC50 (CD40-Fc [8]) [nM] | Receptor activation (EC50, nM) (OX40 receptor on cells [9]) [nM] |
| --- | --- | --- | --- | --- | --- | --- | --- | --- | --- | --- | --- |
| scCD40L-scCD27L (ligand, scDuokine from HEK293, FLAG-purified; VH leader left out; also called single-chain Duokine scCD40L-scCD27L; not shown: N-terminal FLAG tag) GDQNPQIAAHVISEASSKTTSVLQWAEKGYYTMSNNLVTLENGKQLTVKRQGLYYIYAQVTFCSNREASSQAPFIASLCLKSPGRFERILLRAANTHSSAKPCGQQSIHLGGVFELQPGASVFVNVTDPSQVSHGTGFTSFGLLKLGGGSGGGGDQNPQIAAHVISEASSKTTSVLQWAEKGYYTMSNNLVTLENGKQLTVKRQGLYYIYAQVTFCSNREASSQAPFIASLCLKSPGRFERILLRAANTHSSAKPCGQQSIHLGGVFELQPGASVFVNVTDPSQVSHGTGFTSFGLLKLGGGSGGGGDQNPQIAAHVISEASSKTTSVLQWAEKGYYTMSNNLVTLENGKQLTVKRQGLYYIYAQVTFCSNREASSQAPFIASLCLKSPGRFERILLRAANTHSSAKPCGQQSIHLGGVFELQPGASVFVNVTDPSQVSHGTGFTSFGLLKLGGGGSGGGTGGGGSSLGWDVAELQLNHTGPQQDPRLYWQGGPALGRSFLHGPELDKGQLRIHRDGIYMVHIQVTLAICSSTTASRHHPTTLAVGICSPASRSISLLRLSFHQGCTIASQRLTPLARGDTLCTNLTGTLLPSRNTDETFFGVQWVRPGGGSGGGSLGWDVAELQLNHTGPQQDPRLYWQGGPALGRSFLHGPELDKGQLRIHRDGIYMVHIQVTLAICSSTTASRHHPTTLAVGICSPASRSISLLRLSFHQGCTIASQRLTPLARGDTLCTNLTGTLLPSRNTDETFFGVQWVRPGGGSGGGSLGWDVAELQLNHTGPQQDPRLYWQGGPALGRSFLHGPELDKGQLRIHRDGIYMVHIQVTLAICSSTTASRHHPTTLAVGICSPASRSISLLRLSFHQGCTIASQRLTPLARGDTLCTNLTGTLLPSRNTDETFFGVQWVRP | no binding (tested: 100 nM (FIG. 10)) | no binding (tested: 100 nM (FIG. 10)) | 3.1 | 4.26 | 3.42 |  |  |  |  |  |  |
| OX40L-CD27L (ligand, Duokine from HEK293, FLAG-purified; VH leader left out; homotrimer by SEC; also called Duokine OX40L-CD27L; not shown: N-terminal FLAG tag) QVSHRYPRIQSIKVQFTEYKKEKGFILTSQKEDEIMKVQNNSVIINCDGFYLISLKGYFSQEVNISLHYQKDEEPLFQLKKVRSVNSLMVASLTYKDKVYLNVTTDNTSLDDFHVNGGELILIHQNPGEFCVLGGGGSGGGGSGGGGSSLGWDVAELQLNHTGPQQDPRLYWQGGPALGRSFLHGPELDKGQLRIHRDGIYMVHIQVTLAICSSTTASRHHPTTLAVGICSPASRSISLLRLSFHQGCTIASQRLTPLARGDTLCTNLTGTLLPSRNTDETFFGVQWVRP | no binding (tested: 100 nM (FIG. 4)) |  |  |  |  | no binding (tested: 100 nM (FIG. 4)) | 6.58 | 1.7 |  |  |  |
| CD40L-CD27L (ligand, Duokine from HEK293, FLAG-purified; VH leader left out; homotrimer by SEC; also called Duokine CD40L-CD27L; not shown: N-terminal FLAG tag) GDQNPQIAAHVISEASSKTTSVLQWAEKGYYTMSNNLVTLENGKQLTVKRQGLYYIYAQVTFCSNREASSQAPFIASLCLKSPGRFERILLRAANTHSSAKPCGQQSIHLGGVFELQPGASVFVNVTDPSQVSHGTGFTSFGLLKLGGGGSGGGGSGGGGSSLGWDVAELQLNHTGPQQDPRLYWQGGPALGRSFLHGPELDKGQLRIHRDGIYMVHIQVTLAICSSTTASRHHPTTLAVGICSPASRSISLLRLSFHQGCTIASQRLTPLARGDTLCTNLTGTLLPSRNTDETFFGVQWVRP | no binding (tested: 100 nM (FIG. 4)) | no binding (tested: 100 nM (FIG. 4)) |  |  |  |  |  | 3.15 | 2.36 | 8.06 |  |
| scOX40L-scCD27L (ligand, scDuokine from HEK293, FLAG-purified; VH leader left out; also called single-chain Duokine scOX40L-scCD27L; not shown: N-terminal FLAG tag) QVSHRYPRIQSIKVQFTEYKKEKGFILTSQKEDEIMKVQNNSVIINCDGFYLISLKGYFSQEVNISLHYQKDEEPLFQLKKVRSVNSLMVASLTYKDKVYLNVTTDNTSLDDFHVNGGELILIHQNPGEFCVLGGGSGGGQVSHRYPRIQSIKVQFTEYKKEKGFILTSQKEDEIMKVQNNSVIINCDGFYLISLKGYFSQEVNISLHYQKDEEPLFQLKKVRSVNSLMVASLTYKDKVYLNVTTDNTSLDDFHVNGGELILIHQNPGEFCVLGGGSGGGQVSHRYPRIQSIKVQFTEYKKEKGFILTSQKEDEIMKVQNNSVIINCDGFYLISLKGYFSQEVNISLHYQKDEEPLFQLKKVRSVNSLMVASLTYKDKVYLNVTTDNTSLDDFHVNGGELILIHQNPGEFCVLGGGGSGGGTGGGGSSLGWDVAELQLNHTGPQQDPRLYWQGGPALGRSFLHGPELDKGQLRIHRDGIYMVHIQVTLAICSSTTASRHHPTTLAVGICSPASRSISLLRLSFHQGCTIASQRLTPLARGDTLCTNLTGTLLPSRNTDETFFGVQWVRPGGGSGGGSLGWDVAELQLNHTGPQQDPRLYWQGGPALGRSFLHGPELDKGQLRIHRDGIYMVHIQVTLAICSSTTASRHHPTTLAVGICSPASRSISLLRLSFHQGCTIASQRLTPLARGDTLCTNLTGTLLPSRNTDETFFGVQWVRPGGGSGGGSLGWDVAELQLNHTGPQQDPRLYWQGGPALGRSFLHGPELDKGQLRIHRDGIYMVHIQVTLAICSSTTASRHHPTTLAVGICSPASRSISLLRLSFHQGCTIASQRLTPLARGDTLCTNLTGTLLPSRNTDETFFGVQWVRP | no binding (tested: 100 nM (FIG. 10)) |  |  |  | 4.62 | no binding (tested: 100 nM (FIG. 10)) |  |  |  |  | 1.27 |
| scCD27L-scCD40L (ligand, scDuokine from HEK293, FLAG-purified; VH leader left out; also called single-chain Duokine scCD27L-scCD40L; not shown: N-terminal FLAG tag) SLGWDVAELQLNHTGPQQDPRLYWQGGPALGRSFLHGPELDKGQLRIHRDGIYMVHIQVTLAICSSTTASRHHPTTLAVGICSPASRSISLLRLSFHQGCTIASQRLTPLARGDTLCTNLTGTLLPSRNTDETFFGVQWVRPGGGSGGGSLGWDVAELQLNHTGPQQDPRLYWQGGPALGRSFLHGPELDKGQLRIHRDGIYMVHIQVTLAICSSTTASRHHPTTLAVGICSPASRSISLLRLSFHQGCTIASQRLTPLARGDTLCTNLTGTLLPSRNTDETFFGVQWVRPGGGSGGGSLGWDVAELQLNHTGPQQDPRLYWQGGPALGRSFLHGPELDKGQLRIHRDGIYMVHIQVTLAICSSTTASRHHPTTLAVGICSPASRSISLLRLSFHQGCTIASQRLTPLARGDTLCTNLTGTLLPSRNTDETFFGVQWVRPGGGGSGGGTGGGGSGDQNPQIAAHVISEASSKTTSVLQWAEKGYYTMSNNLVTLENGKQLTVKRQGLYYIYAQVTFCSNREASSQAPFIASLCLKSPGRFERILLRAANTHSSAKPCGQQSIHLGGVFELQPGASVFVNVTDPSQVSHGTGFTSFGLLKLGGGSGGGGDQNPQIAAHVISEASSKTTSVLQWAEKGYYTMSNNLVTLENGKQLTVKRQGLYYIYAQVTFCSNREASSQAPFIASLCLKSPGRFERILLRAANTHSSAKPCGQQSIHLGGVFELQPGASVFVNVTDPSQVSHGTGFTSFGLLKLGGGSGGGGDQNPQIAAHVISEASSKTTSVLQWAEKGYYTMSNNLVTLENGKQLTVKRQGLYYIYAQVTFCSNREASSQAPFIASLCLKSPGRFERILLRAANTHSSAKPCGQQSIHLGGVFELQPGASVFVNVTDPSQVSHGTGFTSFGLLKL | no binding (tested: 100 nM (FIG. 10)) | no binding (tested: 100 nM (FIG. 10)) | 3.7 | 8.04 | 3.3 |  |  |  |  |  |  |
| CD27L-CD40L (ligand, Duokine from HEK293, FLAG-purified; VH leader left out; homotrimer by SEC; also called Duokine CD27L-CD40L; not shown: N-terminal FLAG tag) SLGWDVAELQLNHTGPQQDPRLYWQGGPALGRSFLHGPELDKGQLRIHRDGIYMVHIQVTLAICSSTTASRHHPTTLAVGICSPASRSISLLRLSFHQGCTIASQRLTPLARGDTLCTNLTGTLLPSRNTDETFFGVQWVRPGGGGSGGGGSGGGGSGDQNPQIAAHVISEASSKTTSVLQWAEKGYYTMSNNLVTLENGKQLTVKRQGLYYIYAQVTFCSNREASSQAPFIASLCLKSPGRFERILLRAANTHSSAKPCGQQSIHLGGVFELQPGASVFVNVTDPSQVSHGTGFTSFGLLKL | no binding (tested: 100 nM (FIG. 4)) | no binding (tested: 100 nM (FIG. 4)) |  |  |  |  |  | 5.9 | 2.99 | 3.31 |  |
